B1: mutant Bc1 dual terminator coding sequence (dsDNA)
DNA 1: CCAATGCTTTTACATTGGCTTTTTTTTATTCTCGAACATGCCACACCCATAAGCAGCCT
DNA 2: AGGCTGCTTATGGGTGTGGCATGTTCGAGAATAAAAAAAAGCCAATGTAAAAGCATTGG
B2: ck+ (dhbA positive control) (dsDNA)
DNA 1: TTATTTTTATAATTGATAATGATAATCATTATCAATAGATTGCGTTTTTC
DNA 2: GAAAAACGCAATCTATTGATAATGATTATCATTATCAATTATAAAAATAA
B3: Bc1 dual terminator coding sequence (dsDNA)
DNA 1: CCAATGCTTTTACATTGGCTTTTTTTTATTCTCGAACATATTGAGAAACATTTTCAAAC
DNA 2: GTTTGAAAATGTTTCTCAATATGTTCGAGAATAAAAAAAAGCCAATGTAAAAGCATTGG

Columns and labels:
Zur [1] = molecular target: T1, Zur (Bacillus thuringiensis BMB171, UniProt A0A0G3E7H1 1-137); experiment: EMSA; 100 uM MnCl2 per Methods; 50 mM Tris-HCl pH 7.5, 10 mM MgCl2, 1 mM DTT, 100 mM NaCl, 100 uM MnCl2; 25 C, 30 min; 6% native PAGE in 0.5x TBE; DNA stated as 50 uM; conditions: protein: recombinant; tags: C-terminal 6xHis (pET28b); chain copies: 2; label: none (YeaRed gel stain); blunt
Zur [2] = molecular target: T1, Zur; experiment: EMSA; 100 uM MnCl2 (Mn2+ addition did not affect the interaction); 50 mM Tris-HCl pH 7.5, 10 mM MgCl2, 1 mM DTT, 100 mM NaCl, 100 uM MnCl2; 25 C, 30 min; 6% native PAGE in 0.5x TBE; DNA stated as 50 uM; conditions: protein: recombinant; tags: C-terminal 6xHis (pET28b); chain copies: 2; label: none (YeaRed gel stain); blunt

Binder | binding result (Zur [1]) | binding result (Zur [2])
B1 | no binding | –
B2 | binds | –
B3 | – | binds
